# Measurements from patent US10588946B2, “Peptide for promoting bone formation or inhibiting bone resorption and use thereof” (SEOUL NATIONAL UNIVERSITY R&DB FOUNDATION, priority 2015, dated 2020).
# “Also recorded” adds a separate entry of the source. Where no end group is shown, it is not given here.
# What was measured:
# [1] = test system: osteogenic cells, NHDFs, NHOFs, MC3T3-E1, and NIH/3T3 cells; assay: Cell viability assay (water-soluble tetrazolium salt, WST); type: cell-based, human; details: VnP-16 for 24 hours and 48 hours
# Protocol: The viability of human osteogenic cells was analyzed using the EZ-Cytox cell viability assay kit (water-soluble tetrazolium salt (WST) assay; Daeillab). Osteogenic cells (3×10^3 cells/100 μL) were seeded on a 96-well microplate, adapted for 48 hours, and treated with 50 μg/mL, 100 μg/mL, or 200 μg/mL of VnP-16 at 37° C. for 24 hours or 48 hours. The WST reagent solution (10 μL) was added to each well of the 96-well microplate containing 100 μL of cells. The plate was incubated at 37° C. for 2 hours. The absorbance was measured at 450 nm using a microplate reader (BioRad).
# BMMs = assay: Proliferation and viability of BMMs; type: cell-based, mouse; details: 9.1 μg/cm^2
# mature osteoclasts = assay: Viability of mature osteoclasts (surviving osteoclasts after TRAP staining); type: cell-based, mouse; details: 24 hours, 9.1 μg/cm^2
# Protocol: The results of FIGS. 12b and 12c are expressed as mean±S.D. (n=4) ([…].)
# Mature osteoclasts were cultured for 24 hours on Osteo Assay Surface plates precoated with vehicle (DMSO), SP (9.1 μg/cm^2), or VnP-16 (9.1 μg/cm^2), in the presence of M-CSF (30 ng/mL) and RANKL (100 ng/mL).
# [2] = test system: osteoblast precursors and osteogenic cells
# Protocol: SKP-derived mesenchymal cells (MSCs), mouse calvarial osteoblast precursors (MC3T3-E1), and human osteogenic cells (Osteogenic) were cultured on VnP-16 (9.1 μg/cm^2)-coated plates in osteogenic differentiation medium with or without PF-573228 (1 μM) for 2 weeks.
# To visualize mineral deposits, cells were fixed with cold 95% ethanol for 30 minutes at −20° C. for 30 minutes and stained with 40 mM Alizarin red S solution (pH 4.2) for 1 hour. The stained cells were washed five times with DDW and rinsed with PBS for 15 minutes.
# FAK = FAK (Homo sapiens, UniProt Q05397); details: pretreated 1 hour; VnP-16 9.1 μg/cm^2
# FAK, sequence (Q05397 whole entry): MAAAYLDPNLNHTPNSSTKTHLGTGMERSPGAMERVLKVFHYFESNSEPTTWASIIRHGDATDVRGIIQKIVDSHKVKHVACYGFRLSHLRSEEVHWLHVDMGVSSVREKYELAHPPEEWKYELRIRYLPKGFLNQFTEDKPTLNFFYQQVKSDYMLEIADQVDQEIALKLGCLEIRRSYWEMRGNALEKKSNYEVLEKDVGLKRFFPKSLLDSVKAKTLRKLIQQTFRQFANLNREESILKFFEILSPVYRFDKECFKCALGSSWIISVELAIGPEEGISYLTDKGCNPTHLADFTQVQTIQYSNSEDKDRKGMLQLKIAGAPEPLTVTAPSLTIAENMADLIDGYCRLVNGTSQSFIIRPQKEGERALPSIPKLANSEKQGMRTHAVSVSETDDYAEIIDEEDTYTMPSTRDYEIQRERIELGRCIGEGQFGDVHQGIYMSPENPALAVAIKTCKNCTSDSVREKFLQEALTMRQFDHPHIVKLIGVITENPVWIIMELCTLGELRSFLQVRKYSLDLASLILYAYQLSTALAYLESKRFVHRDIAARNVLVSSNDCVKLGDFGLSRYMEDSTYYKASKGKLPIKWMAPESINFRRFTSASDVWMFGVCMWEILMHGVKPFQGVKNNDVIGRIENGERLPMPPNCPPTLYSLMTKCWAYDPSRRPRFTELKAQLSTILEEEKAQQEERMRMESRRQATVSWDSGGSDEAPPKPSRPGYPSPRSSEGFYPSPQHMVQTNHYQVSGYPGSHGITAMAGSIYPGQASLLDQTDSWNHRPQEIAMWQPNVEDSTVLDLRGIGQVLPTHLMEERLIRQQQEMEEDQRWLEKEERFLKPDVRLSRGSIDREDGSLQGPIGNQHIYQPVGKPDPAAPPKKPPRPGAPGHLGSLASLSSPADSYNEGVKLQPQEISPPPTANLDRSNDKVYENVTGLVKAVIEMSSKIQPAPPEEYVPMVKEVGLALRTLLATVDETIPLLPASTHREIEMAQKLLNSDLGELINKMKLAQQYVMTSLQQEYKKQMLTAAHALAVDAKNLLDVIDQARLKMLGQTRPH
# osteogenic cells [3] = assay: Adhesion inhibition assay (cell attachment to VnP-16 after preincubation); type: cell-based, human; details: 5 mM EDTA, 500 μM MnCl2, 100 μg/mL heparin, 10 μg/mL blocking antibody; VnP-16 9.1 μg/cm^2, 1 hour
# Protocol: Cells (5×10^4 cells/250 μL) were preincubated with 5 mM EDTA, 500 μM MnCl2, 100 μg/mL heparin, and 10 μg/mL function-blocking antibodies against integrin α1 (FB12), α2 (P1E6), α3 (P1B5), α4 (P4C2), α5 (P1D6), α6 (NKI-GoH3), β3 (B3A; Chemicon), av (AV1), β1 (6S6; Millipore), or β3 (B3A) subunits at 37° C. for 15 minutes. […] The attached cells were quantified as described in Example 6.
# β1 integrin = molecular target: T1, β1 integrin (Homo sapiens, UniProt P05556); assay: Pulldown assay with biotinylated VnP-16; type: binding; details: human osteogenic cells and HOS cells, 3 hours; vs streptavidin beads alone
# T1 construct: osteogenic cells that were transfected with a control (Con) siRNA (10 nM) or β1 integrin siRNA (10 nM); endogenous in cells; host or cells: human osteogenic cells differentiated from foreskin skin-derived precursors (SKPs)
# T1 sequence (P05556 21-798): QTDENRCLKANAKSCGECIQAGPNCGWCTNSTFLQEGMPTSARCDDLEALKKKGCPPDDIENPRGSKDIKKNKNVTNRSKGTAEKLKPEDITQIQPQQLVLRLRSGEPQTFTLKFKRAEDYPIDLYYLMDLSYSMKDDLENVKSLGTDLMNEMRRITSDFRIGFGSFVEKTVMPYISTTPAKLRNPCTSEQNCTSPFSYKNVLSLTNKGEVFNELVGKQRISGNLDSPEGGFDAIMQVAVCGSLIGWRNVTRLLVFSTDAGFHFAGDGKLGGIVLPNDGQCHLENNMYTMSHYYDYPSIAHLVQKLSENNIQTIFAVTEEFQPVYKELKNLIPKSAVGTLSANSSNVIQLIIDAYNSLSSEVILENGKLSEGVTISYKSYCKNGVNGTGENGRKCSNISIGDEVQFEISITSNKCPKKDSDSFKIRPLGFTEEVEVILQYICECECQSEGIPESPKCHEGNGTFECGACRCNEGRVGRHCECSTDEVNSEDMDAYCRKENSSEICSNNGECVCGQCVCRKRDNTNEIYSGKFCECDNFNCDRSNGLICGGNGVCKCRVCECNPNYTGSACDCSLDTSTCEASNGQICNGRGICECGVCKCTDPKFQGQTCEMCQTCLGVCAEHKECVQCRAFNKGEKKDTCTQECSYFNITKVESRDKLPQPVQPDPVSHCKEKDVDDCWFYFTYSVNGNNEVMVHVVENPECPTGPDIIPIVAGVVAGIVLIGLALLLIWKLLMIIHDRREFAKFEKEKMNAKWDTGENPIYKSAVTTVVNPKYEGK
# Protocol: Pulldown assays were performed using a biotinylated VnP-16 peptide according to a known method (Bottcher, R. T., Bio protocol 3, e962 (2013)). […] Cells (3×10^6) were seeded onto 100 mm culture dishes coated with biotin-conjugated VnP-16 peptides, incubated for 3 hours, and washed twice with cold PBS. The cells were scraped with 500 μL lysis buffer (50 mM Tris-HCl, pH 7.5, 150 mM NaCl, 0.1% Na-deoxycholate, 1% Triton X-100, protease, and phosphatase inhibitor cocktail tablets) followed by passing the lysates 15 times through a 26.5-gauge needle and centrifuging at 17,000×g for 10 minutes at 4° C. The supernatants of the cell lysates were incubated with 60 μL of streptavidin-agarose beads (Thermo Fisher Scientific, Waltham, Mass.) and centrifuged at 1,500×g for 2 minutes at 4° C. After washing the beads four times with lysis buffer, the precipitated proteins were resolved by 8% SDS-PAGE and analyzed by immunoblotting.
# [4] = test system: rat models with critical-size calvarial defects; assay: Rat critical-size calvarial defect model; type: in vivo; details: collagen sponge implant, two weeks after surgery
# Protocol: For critical-size calvarial defects, 8-week-old male Sprague-Dawley rats (n=5 rats/group) were used. VnP-16 was dissolved in DDW and SP in DMSO (5 mg/mL) and then diluted with DDW. Absorbable collagen sponges (Bioland) were loaded with human recombinant BMP-2 (4 μg/cm^2, 15 μL volume; PeproTech), synthetic peptides (1 mg/cm^2 and 2 mg/cm^2, 15 μL volume), or vehicle (10 μL of DMSO and 5 μL of DDW). The surgical procedures for the creation of an 8 mm circular defect in the parietal bone and implantation of the collagen sponge were performed as described in the reference (Lee, J. H., et al., Biomaterials, 31, 3512 to 3519 (2010)). The rats were euthanized at 2 weeks after surgery, and whole calvaria were fixed in 4% paraformaldehyde at 4° C. for 24 hours and analyzed by μCT scanning. Details for the μCT scans are illustrated below.
# For histomorphometric analysis, the specimens were decalcified with 12% EDTA for 4 weeks and embedded in paraffin. […] The mice were sacrificed on day 7, and the whole calvariae were dissected, cleaned of soft tissue, fixed in 4% paraformaldehyde at 4° C. for 24 hours, subjected to TRAP staining, and then analyzed by μCT scanning. μCT was performed with the Micro-CT Skyscan 1172 system (70 kV, 141 μA, and 38 minutes integration time; Skyscan). […] The regenerated bone volume and bone mineral content were calculated with CT Analyser version 1.14.4.1 (Bruker-microCT). […]
# osteogenic cells [5] = assay: Cell spreading assay on coated plates; type: cell-based, human; details: serum-free medium, 3 hours
# Text: (§1) Plates were gently washed three times with PBS.
# osteogenic cells [6] = assay: Cell migration assay (transwell); type: cell-based, human; details: 24 hours
# Protocol: Cell migration assays were performed with transwell migration chambers (pore size, 8 μm; Corning). […] Cells (2×10^5 cells/mL) were resuspended in DMEM containing 0.5% FBS and 0.1% BSA. This suspension (100 μL) was seeded in the upper chamber of a transwell filter. After seeding the […] (100 μL) to the upper chamber of the transwell migration chambers, the cells were allowed to migrate at 37° C. for 24 hours. Cells were then fixed with 10% formalin for 15 minutes and stained with 0.5% crystal violet. Unmigrated cells, those remaining in the upper side of the transwell filter, were removed with a cotton swab and counted under light microscopy. Cell migration was quantified by counting the number of cells that had migrated through the filter.
# human osteogenic cells = assay: Cell attachment assay on coated plates; type: cell-based; details: for coating concentration at which cell attachment activity reached a maximum level: osteogenic cells, dose-response; for cell attachment activity of osteogenic cells: substrate-coated plates, serum-free medium, 1 hour
# Text: as §1
# [7] = VnP-16-coated plates, osteogenic differentiation medium, PF-573228 1 μM, 2 weeks
molecule,measurement,setting,value
"RVYFFKGKQYWE-NH2 [VnP-16, RVYFFKGKQYWE (SEQ ID NO: 17)]",viability of cells or cell lines tested,[1],did not affect
same,cell proliferation and viability of BMMs,BMMs,did not affect
same,viability of osteoclasts,mature osteoclasts,no effect
CS(=O)(=O)c1cccc(CNc2nc(Nc3ccc4c(c3)CCC(=O)N4)ncc2C(F)(F)F)c1 [PF-573228],cell growth,[2],did not affect
same,alkaline phosphatase (ALP) activity,[2]; [7],notably weakened
same,calcium deposition,[2]; [7],reduced
same,cell attachment to VnP-16 after pretreatment of PF-573228,FAK,significantly inhibited in a dose-dependent manner
heparin,cell attachment to VnP-16 after pretreatment of cells,osteogenic cells [3],not inhibited
O=C(O)CN(CCN(CC(=O)O)CC(=O)O)CC(=O)O [EDTA],cell attachment to VnP-16 after pretreatment of cells,osteogenic cells [3],completely inhibited
"[Cl][Mn][Cl] [Mn^2+, MnCl2]",cell attachment to VnP-16 after pretreatment of cells,osteogenic cells [3],significantly enhanced
biotinylated VnP-16: biotin-conjugated VnP-16 peptide used for pulldown (RVYFFKGKQYWE-NH2; also: biotinylated),binding of β1 integrin in pulldown,β1 integrin,selectively bound
"FVWRQFYKYEKG (SEQ ID NO: 23) (Scrambled peptide) [SP, scrambled peptide used as control, reference compound]",new bone formation in calvarial defects (μCT images),[4],only limited new bone formation
same,cell spreading,osteogenic cells [5],ineffective
"rVn-FII: recombinant human vitronectin truncation, 173 residues, amino acids at positions 150 to 322 (protein, rVn-FII) PAEEELCSGKPFDAFTDLKNGSLFAFRGQYCYELDEKAVRPGYPKLIRDVWGIEGPIDAAFTRINCQGKTYLFKGSQYWRFEDGVLDPDYPRNISDGFDGIPDNVDAALALPAHSYSGRERVYFFKGKQYWEYQFQHQPSQEECEGSSLSAVFEHFAMMQRDSWEDIFELLFW",cell migration,osteogenic cells [6],induced no cell spreading or migration
same,coating concentration at which cell attachment activity reached a maximum level,human osteogenic cells,about 5.7 μg/cm^2
same,cell attachment activity of osteogenic cells,human osteogenic cells,"lower cell attachment activity compared to that of rVn-FI; also recorded: adhered; also recorded: promoted cell attachment, although to a lower extent than full-length vitronectin; also recorded: significant cell attachment activity"
same,cell spreading,osteogenic cells [5],induced no cell spreading or migration
"rVn-FI: recombinant human vitronectin truncation I expressed in E. coli (protein, rVn-FI, recombinant human vitronectin truncation I expressed in E. coli) DQESCKGRCTEGFNVDKKCQCDELCSYYQSCCTDYTAECKPQVTRGDVFTMPEDEYTVYDDGEEKNNATVHEQVGGPSLTSDLQAQSKGNPEQTPVLKPEEEAPAPEVGASKPEGIDSRPETLHPGRPQP",cell migration,osteogenic cells [6],induced cell spreading and migration
same,coating concentration at which cell attachment activity reached a maximum level,human osteogenic cells,about 5.7 μg/cm^2
same,cell attachment activity of osteogenic cells,human osteogenic cells,"adhered; also recorded: promoted cell attachment, although to a lower extent than full-length vitronectin"
same,cell spreading,osteogenic cells [5],induced cell spreading and migration
"rVn-FIII: recombinant human vitronectin truncation III expressed in E. coli (protein, rVn-FIII, recombinant human vitronectin truncation III expressed in E. coli) GRTSAGTRQPQFISRDWHGVPGQVDAAMAGRIYISGMAPRPSLAKKQRFRHRNRKGYRSQRGHSRGRNQNSRRPSRATWLSLFSSEESNLGANNYDDYRMDWLVPATCEPIQSVFFFSGDKYYRVNLRTRRVDTVDPPYPRSIAQYWLGCPAPGHL",cell migration,osteogenic cells [6],induced no cell spreading or migration
same,cell attachment activity of osteogenic cells,human osteogenic cells,did not adhere
same,cell spreading,osteogenic cells [5],induced no cell spreading or migration
"human plasma vitronectin: Human vitronectin purchased from Millipore (protein, UniProt P04004 20-478, looked up) Vitronectin: DQESCKGRCTEGFNVDKKCQCDELCSYYQSCCTDYTAECKPQVTRGDVFTMPEDEYTVYDDGEEKNNATVHEQVGGPSLTSDLQAQSKGNPEQTPVLKPEEEAPAPEVGASKPEGIDSRPETLHPGRPQPPAEEELCSGKPFDAFTDLKNGSLFAFRGQYCYELDEKAVRPGYPKLIRDVWGIEGPIDAAFTRINCQGKTYLFKGSQYWRFEDGVLDPDYPRNISDGFDGIPDNVDAALALPAHSYSGRERVYFFKGKQYWEYQFQHQPSQEECEGSSLSAVFEHFAMMQRDSWEDIFELLFWGRTSAGTRQPQFISRDWHGVPGQVDAAMAGRIYISGMAPRPSLAKKQRFRHRNRKGYRSQRGHSRGRNQNSRRPSRATWLSLFSSEESNLGANNYDDYRMDWLVPATCEPIQSVFFFSGDKYYRVNLRTRRVDTVDPPYPRSIAQYWLGCPAPGHL",cell migration,osteogenic cells [6],strongly promoted
same,cell attachment activity of osteogenic cells,human osteogenic cells,strongly promoted
same,cell spreading,osteogenic cells [5],strongly promoted
